These results are taken from publication PMC11299580, “Discovery of novel disease-causing mutation in SSBP1 and its correction using adenine base editor to improve mitochondrial function” (Molecular Therapy. Nucleic Acids, 2023).

The term Kd denotes the constant that tells how readily two partners part at equilibrium.

Data set [1] concerns the molecule itself. In words: cross-linking; glutaraldehyde cross-linking of recombinant SSBP1 proteins, SDS-PAGE with Coomassie staining and SSBP1 immunoblot, band intensities quantified with ImageJ (n = 3). For orientation: In western blotting, separated proteins are transferred to a membrane and probed.
The target in the next data set is T1, SSBP1 wild-type (Homo sapiens, UniProt Q04837 17-148).
T1 sequence: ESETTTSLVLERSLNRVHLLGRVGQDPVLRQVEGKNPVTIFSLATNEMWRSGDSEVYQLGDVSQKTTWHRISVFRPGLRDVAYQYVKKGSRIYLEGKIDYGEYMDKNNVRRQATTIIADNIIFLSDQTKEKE
Description: EMSA; probe 0.25 uM (far above Kd); legend gives protein 0-2 nM, main text figure 1 uM; units doubtful; 50 mM Tris pH 7.5, 150 mM NaCl, 10% glycerol, 30 min at room temperature; 2% agarose gel in 1x TBE. Particulars: protein: recombinant; tags: IMAC tag (probably His); chain copies: 4.

B1: single-stranded DNA-binding protein 1 (SSBP1), wild-type recombinant protein (natural protein, human, UniProt Q04837 17-148, looked up)
chain: T1 sequence
notes: A human SSBP1 cDNA clone (Origene RC215106) is named only for expression in mammalian cells; also called wild-type SSBP1; source: E. coli BL21 (DE3), purified (HiTrap IMAC, dialysis, Superdex 200 SEC)
Take B1: the binding result in data set [1] was “binds”.

B2: EMSA ssDNA probe (ssDNA)
DNA: GGACTATTTATTCAATATATTTAAGAACTAATTCCAGCTGAGCGCCGG
Consider B2, for which the Kd with SSBP1 wild-type was 11.2 ± 0.89 nM.
